In PMC5374406, “The Phosphorylation of PDX-1 by Protein Kinase CK2 Is Crucial for Its Stability” (Pharmaceuticals, 2016):

Legend:
[1] = target: PCIF1 (endogenous, MIN6) (UniProt Q6ZWS8); assay: Duolink proximity ligation assay; conditions: reference: DMSO, sites T231,S232
[2] = target: PCIF1 (human; SPOP) (UniProt O43791); assay: GST pull-down, 35S autoradiography; conditions: sites T231,S232
[3] = target: T1, GST-PDX-1 T231D/S232E (CK2-phosphomimicking mutant) (mouse, UniProt P52946 1-284, T231D | S232E); assay: pull-down; 10 ug purified GST-tagged PDX-1 immobilised on GSH-sepharose in PBS-T (PBS pH 7.4, 1% Tween 20), incubated 2 h at 4 °C with 7.5 uL in vitro translated [35S]-methionine labeled PCIF1; SDS-PAGE, Coomassie and autoradiography; conditions: one partner purified
T1 construct: 'Full-length mouse PDX-1' is said of the FLAG construct; also called D/E mutant; source: bacterial expression vector pGEX-4T-1, purified
T1 sequence (P52946 whole entry T231D/S232E): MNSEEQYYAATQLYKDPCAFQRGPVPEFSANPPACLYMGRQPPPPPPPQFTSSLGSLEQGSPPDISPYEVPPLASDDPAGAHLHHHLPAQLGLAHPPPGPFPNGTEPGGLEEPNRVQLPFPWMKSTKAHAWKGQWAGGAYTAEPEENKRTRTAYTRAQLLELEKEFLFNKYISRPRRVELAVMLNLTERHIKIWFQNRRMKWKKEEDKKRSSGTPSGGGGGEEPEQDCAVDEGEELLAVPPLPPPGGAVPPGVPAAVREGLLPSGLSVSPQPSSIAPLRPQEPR

For “PDX-1 (from UniProt P52946) 10 µM CX-4945, 5 mM glucose”, the percent of reference ([1]; 5 mM glucose) was “weaker; reference 100”.

For “PDX-1 (from UniProt P52946) 10 µM CX-4945, 25 mM glucose”, the percent of reference ([1]; 25 mM glucose) was “weaker; reference 100”.

Molecule “PDX-1 (from UniProt P52946) GST-PDX-1 T231D/S232E” has a fold change ([2]; reference: GST-PDX-1 T231A/S232A) of 1.5 and a fold change ([2]; reference: GST-PDX-1 wild type) of 1.5.

B1: PCIF1 (human), in vitro translated and [35S]-methionine labeled, from pET28a-PCIF-1 (natural protein, UniProt O43791 1-374, looked up)
chain: MSRVPSPPPPAEMSSGPVAESWCYTQIKVVKFSYMWTINNFSFCREEMGEVIKSSTFSSGANDKLKWCLRVNPKGLDEESKDYLSLYLLLVSCPKSEVRAKFKFSILNAKGEETKAMESQRAYRFVQGKDWGFKKFIRRDFLLDEANGLLPDDKLTLFCEVSVVQDSVNISGQNTMNMVKVPECRLADELGGLWENSRFTDCCLCVAGQEFQAHKAILAARSPVFSAMFEHEMEESKKNRVEINDVEPEVFKEMMCFIYTGKAPNLDKMADDLLAAADKYALERLKVMCEDALCSNLSVENAAEILILADLHSADQLKTQAVDFINYHASDVLETSGWKSMVVSHPHLVAEAYRSLASAQCPFLGPPRKRLKQS
modifications: [35S]-methionine labeled
notes: PCIF1 / SPOP, human cDNA cloned into the BamH1/Xho1 sites of pET28a; wild-type form; The tags are inferred from the vector and cloning sites; also called SPOP; source: in vitro translated (Promega) from pET28a-PCIF-1
With B1 the “fold binding against wild-type or the AA mutant” value [3] was 1.5 fold.
